Key:
[1] = target: T1, arylalkylamine N-acetyltransferase like 7 (AANATL7) (Drosophila melanogaster, UniProt Q9W4Y1); test: intrinsic protein fluorescence quenching; format: binding
[2] = target: arylalkylamine N-acetyltransferase like 7 (AANATL7) (Drosophila melanogaster, UniProt Q9W4Y1, R138A); test: intrinsic protein fluorescence quenching; format: binding
[3] = target: T1, arylalkylamine N-acetyltransferase like 7 (AANATL7); test: dead-end inhibition kinetics; format: biochemical
[4] = substrate: NCCc1c[nH]c2ccc(OCc3ccccc3)cc12; test: steady-state kinetics, Km,app; format: biochemical, Drosophila melanogaster; details: acetyl-CoA; pH 8.0
[5] = substrate: NCCc1c[nH]c2ccccc12; test: steady-state kinetics, Km,app; format: biochemical, Drosophila melanogaster; details: acetyl-CoA; pH 8.0
[6] = substrate: NCCc1ccc(O)cc1; test: steady-state kinetics, Km,app; format: biochemical, Drosophila melanogaster; details: acetyl-CoA; pH 8.0
[7] = substrate: CCCC(=O)SCCNC(=O)CCNC(=O)[C@H](O)C(C)(C)COP(=O)(O)OP(=O)(O)OC[C@H]1O[C@@H](n2cnc3c(N)ncnc32)[C@H](O)[C@@H]1OP(=O)(O)O; test: steady-state kinetics, Km,app; format: biochemical, Drosophila melanogaster; details: pH 8.0
[8] = substrate: CC(=O)SCCNC(=O)CCNC(=O)[C@H](O)C(C)(C)COP(=O)(O)OP(=O)(O)OC[C@H]1O[C@@H](n2cnc3c(N)ncnc32)[C@H](O)[C@@H]1OP(=O)(O)O; test: purified protein; details: binds first in ordered sequential mechanism; pH 8.0

`CC(C)(COP(=O)(O)OP(=O)(O)OC[C@H]1O[C@@H](n2cnc3c(N)ncnc32)[C@H](O)[C@@H]1OP(=O)(O)O)[C@@H](O)C(=O)NCCC(=O)NCCS` [coenzyme A] gave a Kd [1] of 530 ± 110 µM and a Kd [2] of 1100 ± 200 µM.

`OCCc1ccc(O)cc1` [tyrosol] showed a Ki [3] of 430 ± 20 µM.

Work on `CCCCCCCC/C=C\CCCCCCCC(=O)SCCNC(=O)CCNC(=O)[C@H](O)C(C)(C)COP(=O)(O)OP(=O)(O)OC[C@H]1O[C@@H](n2cnc3c(N)ncnc32)[C@H](O)[C@@H]1OP(=O)(O)O` [oleoyl-CoA] yielded a Ki [3] of 0.2 ± 0.01 µM.

B1: arylalkylamine N-acetyltransferase like 7 (AANATL7) (Drosophila melanogaster) (protein)
chain: MEYKMIAPEHSEQVMEHLRRNFFADEPLNKAAGLCQNGSSCPALEAHCAEAIQHRMSVMAVDAKEKDTLKIVGVVLNGILKPGDTAKALSKLDCNDDADFRKIFDLLHRHNLKHNLFEHFDVDCMFDVRILSVDSCYRGQGIANELVKRSVAVAKKNGFRLLKADATGIFSQKIFRSHGFEVFSEQPYSKYTDENGKVILPVEAPHIKLQQLYKAICADDQDEKKQSL
B1 was tested, and the Km [4] was 9 ± 1 µM, the kcat [4] was 5.7 ± 0.1 s⁻¹ and the kcat/Km [4] was 630000 ± 40000 M⁻¹ s⁻¹. It also gave a Km [5] of 26 ± 2 µM, a kcat [5] of 16 ± 0.3 s⁻¹ and a kcat/Km [5] of 600000 ± 40000 M⁻¹ s⁻¹. The Km [6] was 42 ± 2 µM, the Km [7] was 6 ± 1 µM and the kcat [7] was 0.66 ± 0.02 s⁻¹. For the same molecule, the kcat/Km [7] was 110000 ± 20000 M⁻¹ s⁻¹, the Km [8] was 29 ± 2 µM and the kcat [8] was 32 s⁻¹. The kcat/Km [8] was 1.1e+06 M⁻¹ s⁻¹.

— publication PMC4749145 (Biochemistry, 2015)
